According to publication PMC3985653, “A bacteriophage transcription regulator inhibits bacterial transcription initiation by σ-factor displacement”:

What was measured:
[1] = molecular target: T1, P7-sensitive core RNA polymerase (P7SE; hybrid E. coli core with Xo beta' N-terminus NLFN);sigma70 (Escherichia coli (397c cells, …, UniProt P0A7Z4;P0A8V2;Q2NZX9;P0A800;P00579 1-329;1-1342;1-10+P0A8T7:11-1407;2-91;1-613, internal_change|); assay: KMnO4 footprinting; conditions: protein: recombinant;recombinant; tags: C-6His on beta';N-6His-HMK in 32P-labelled experiments; unlabelled form purified separately; chain copies: 2;1;1;1;1; label: 5'-32P on one strand; blunt
[2] = molecular target: T1, P7-sensitive core RNA polymerase (P7SE; …); assay: EMSA; no P7; heparin-resistant open complex; conditions: protein: recombinant;recombinant; tags: C-6His on beta';N-6His-HMK in 32P-labelled experiments; unlabelled form purified separately; chain copies: 2;1;1;1;1; blunt

B1: T5 N25 promoter [-65 to +35] (dsDNA)
DNA 1: TCTTTGCTCAAAGAATCATAAAAAATTTATTTGCTTTCAGGAAAATTTTTCTGTATAATAGATTCATAAATTTGAGAGAGGAGTTTAAATATGGCTGGTTC
DNA 2: GAACCAGCCATATTTAAACTCCTCTCTCAAATTTATGAATCTATTATACAGAAAAATTTTCCTGAAAGCAAATAAATTTTTTATGATTCTTTGAGCAAAGA
Q: Does B1 bind [1]?
A: binds

B2: lacUV5 promoter [-64 to +36] (dsDNA)
DNA 1: GTTAGCTCACTCATTAGGCACCCCAGGCTTTACACTTTATGCTTCCGGCTCGTATAATGTGTGGAATTGTGAGCGGATAACAATTTCACACAGGAAACAG
DNA 2: CTGTTTCCTGTGTGAAATTGTTATCCGCTCACAATTCCACACATTATACGAGCCGGAAGCATAAAGTGTAAAGCCTGGGGTGCCTAATGAGTGAGCTAAC
Q: Does B2 bind [2]?
A: binds
